Read-outs that look alike come from different tables or passages of the source. Each block holds one molecule with its values, some of them ahead of it. Where a SMILES comes first, the peptide text is derived from it. Bridges are numbered along the chain shown (N, C = ends). [ ]: non-standard residue; d: D form. S5 = C=CCCC[C@](C)(N)C(=O)O; TP2‑Rho = not defined here
How the values were obtained:
[1] = circular dichroism; conditions: 50 mM phosphate buffer; pH 7; 20 °C; 100 uM
[2] = Circular dichroism, determination of alpha helical content; type: physicochemical
Description: CD experiments were carried out using a Jasco J815 spectropolarimeter. Spectra were recorded with 100 μM of peptides dissolved in phosphate buffer 50 mM, pH 7, using a 1 mm pathlength CD cuvette at 20 °C, over a wavelength range of 190-260 nm. Continuous scanning mode was used, with a response of 1.0 s with 0.1 nm steps and a bandwidth of 2 nm. The signal to noise ratio was improved by acquiring each spectrum over an average of two scans. Baseline was corrected by subtracting the background from the sample spectrum.
Alpha helical content was determined using the following equation: % Helix = ([θ])obs * 100)/(-39500 * (1-2.57/n), where ([θ])obs is the mean residue ellipticity at 222 nm and n the number of peptide bonds.

[3] = biological target: C4D peptide derived from the alpha 5 helix of cyclin D1 (Homo sapiens, UniProt P24385); test: Fluorescence titration of TP2-Rho-labelled C4D peptide with CDK4 C helix-derived peptides; type: binding; conditions: 200 nM TP2-Rho labelled C4D peptide, PBS, 30 °C, average of n = 3 to 5 ± SD
Description: TP2-Rho-labelled peptides: peptides were labelled on a unique cysteine residue with a five-fold molar excess of TP2-Rho-maleimide overnight, and then purified from free dye on NAP-5 columns (GE Healthcare), as described previously.
(§1) Fluorescence titration assays were performed in 96-well plates in a thermostated chamber (Clariostar spectrofluorimeter, BMG) at 30 °C in 200 μL phosphate buffer saline using 200 nM fluorescently-labelled peptides or proteins. The fluorescence emission intensity of TP2-Rho-labelled peptides was recorded at 614 nm following excitation at 510 nm. The fluorescence emission intensity of mant-ATP was measured at […]. Data analysis was performed using the GraFit Software (Erathicus Ltd) and curve fitting was performed using a quadratic equation, as described previously. Experiments were performed in triplicate, and Kd values represent the average calculated for n = 3 to 5 experiments, together with standard deviation.

[4] = design: species or system mice; conditions: mouse, in vivo
Description: Five weeks after the inoculation of H358-Luc cells, when bioluminescent orthotopic tumours were detected, nude mice were randomly divided into 6 groups. Mice were treated with vehicle (control, n = 14), Abemaciclib (n = 10), or P2-short administered intravenously (n = 10) or intrapulmonary (n = 10), or treated with a combination of Abemaciclib and P2-short (intravenous administration of P2-short, n = 10; intrapulmonary administration of P2-short, n = 10). Mice were daily orally treated for three weeks with 10 mg/kg Abemaciclib. P2-short was either administered via the tail vein three times a week for three weeks under anesthesia (isoflurane/air 4% for induction and 1.5% thereafter) with 200 μL at 0.9 mg/kg, or administered intrapulmonary two times a week for three weeks under anesthesia with 50 μL at 0.45 mg/kg. Intrapulmonary administration of P2-short was performed using a catheter connected to a FMJ-250-high-pressure syringe (Penn-Centur, Inc) and introduced into the trachea of the animals using a dedicated laryngoscope. Mice were observed and weighed three times a week. Tumour growth was followed by in vivo bioluminescence imaging (IVIS Kinetic). After 3 weeks, mice were sacrificed, and blood samples were collected by cardiac puncture for biochemistry analysis ([…]). Lungs were collected for immunohistochemistry analyses. […]

[5] = design: species or system mice; conditions: mouse, in vivo, iv
[6] = tested on: A549 cells; test: cells; type: cell-based, human; conditions: 48 hours, crystal violet, at least two independent experiments (n=4/experiment) ± SD, Grafit; read-out: IC50 A549 cell proliferation
Description: Non-small cell lung cancer A549, H358 and PC9 cell lines used in this study. Cell culture media, serum and antibiotics were purchased from Life Technologies. All cell lines were cultured in RPMI + Glutamax supplemented with 10% FCS, 100 units/mL penicillin (G sodium salt) and 100 µg/mL streptomycin at 37 °C in an atmosphere containing 5% CO2. […] Stock solutions of drugs were prepared in DMSO and freshly diluted in PBS to the desired concentration prior to use, then added onto unsynchronized cells cultured to subconfluency (60-70%), which were then further incubated for 24, 48 or 72 h. Cell proliferation was determined by crystal violet assay following treatment with drugs. Cells were washed with PBS, fixed with 3.7% formaldehyde for 10 min and then incubated with 0.1% crystal violet dye for 30 min. After rinsing, crystals were dissolved in 10% acetic acid and viability was determined by measuring absorbance at 595 nm.

[7] = biological target: TP2-Rho-labelled CDK4 C helix peptide (unstapled) (human); test: other fluorescence titration; 200 nM TP2-Rho-labelled peptide titrated with GST-cyclins or GST; 96-well plates, 30 °C, 200 μL phosphate buffer saline; quadratic fit; average Kd of n = 3 to 5 experiments
[8] = biological target: T1, CDK4/cyclin D1 (Homo sapiens, UniProt P11802); test: Fluorescence titration of mant-ATP with CDK4/cyclin D1 with or without P2short; type: binding; conditions: 200 nM mant-ATP
T1 construct: GST (N); made in house; host or cells: E. coli
T1 sequence (P11802 whole entry): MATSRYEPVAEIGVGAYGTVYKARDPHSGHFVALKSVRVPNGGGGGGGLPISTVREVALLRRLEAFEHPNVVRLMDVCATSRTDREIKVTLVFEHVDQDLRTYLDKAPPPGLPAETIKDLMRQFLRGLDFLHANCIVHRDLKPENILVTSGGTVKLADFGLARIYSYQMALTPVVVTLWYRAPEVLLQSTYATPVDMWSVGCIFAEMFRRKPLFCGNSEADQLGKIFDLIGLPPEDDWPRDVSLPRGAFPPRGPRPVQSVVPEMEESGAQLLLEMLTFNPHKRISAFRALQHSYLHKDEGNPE
T1 sequence (P24385 whole entry partner): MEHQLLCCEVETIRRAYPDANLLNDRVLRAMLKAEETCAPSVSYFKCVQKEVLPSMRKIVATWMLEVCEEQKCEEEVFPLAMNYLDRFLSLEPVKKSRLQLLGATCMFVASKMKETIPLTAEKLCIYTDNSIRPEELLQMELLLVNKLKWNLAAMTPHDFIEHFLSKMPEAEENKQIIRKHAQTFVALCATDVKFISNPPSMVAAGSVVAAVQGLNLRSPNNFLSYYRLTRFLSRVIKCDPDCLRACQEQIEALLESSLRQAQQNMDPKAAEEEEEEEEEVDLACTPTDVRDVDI
Description: Recombinant GST-CDK4 and GST-cyclin D1 were expressed in E. coli by IPTG induction and purified by FPLC chromatography as described previously.
as §1

[9] = biological target: T2, GST-cyclin D1 (UniProt P24385 1-295); test: other fluorescence titration; 200 nM TP2-Rho-labelled peptide titrated with GST-cyclins or GST; 96-well plates, 30 °C, 200 μL phosphate buffer saline; quadratic fit; average Kd of n = 3 to 5 experiments; conditions: both partners purified
T2 construct: cyclin D1; also called recombinant cyclin; source: E. coli, IPTG induction, purified by FPLC chromatography
T2 sequence (P24385 whole entry): as the sequence (P24385 whole entry partner) above

[10] = biological target: GST-cyclin E (UniProt P24864 1-410); test: as above; conditions: both partners purified
[11] = biological target: T3, GST-cyclin Y (UniProt Q8ND76 1-341); test: as above; conditions: both partners purified
T3 construct: cyclin Y; source: E. coli BL21, purified (GSTrap HP, desalting column)
T3 sequence (Q8ND76 whole entry): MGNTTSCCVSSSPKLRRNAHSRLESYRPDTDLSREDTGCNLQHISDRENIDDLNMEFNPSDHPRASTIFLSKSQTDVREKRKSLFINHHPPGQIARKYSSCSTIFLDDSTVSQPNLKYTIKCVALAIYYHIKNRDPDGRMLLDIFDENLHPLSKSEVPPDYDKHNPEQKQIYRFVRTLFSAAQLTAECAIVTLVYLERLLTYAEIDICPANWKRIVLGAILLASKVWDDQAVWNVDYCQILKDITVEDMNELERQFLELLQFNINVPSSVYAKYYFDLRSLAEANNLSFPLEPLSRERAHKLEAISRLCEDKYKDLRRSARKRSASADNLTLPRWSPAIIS

[12] = biological target: GST-cyclin A (UniProt P20248 1-432); test: as above; conditions: both partners purified

Molecule: CC(=O)N[C@@H](CS)C(=O)N[C@@H](C)C(=O)N1CCC[C@H]1C(=O)N[C@@H](C)C(=O)N[C@@H](CO)C(=O)N[C@H](C(=O)N[C@@H](C)C(=O)N[C@@H](C)C(=O)N[C@@]1(C)CCCC=CCCC[C@@](C)(C(=O)N[C@@H](C)C(=O)N[C@@H](CCCNC(=N)N)C(=O)N[C@@H](CC(C)C)C(N)=O)NC(=O)[C@H](CC(C)C)NC(=O)[C@H](C)NC(=O)[C@H](CCCCN)NC1=O)[C@@H](C)O (Ac-CAPASTAA[S5]KAL[S5]ARL-NH2; staple 9-13)
helicity [1]: 34%

Molecule: CC[C@H](C)[C@H](NC(=O)[C@@H]1CCCN1C(=O)[C@H](CC(C)C)NC(C)=O)C(=O)N[C@@H](CO)C(=O)N[C@H](C(=O)N[C@H](C(=O)N[C@@H](CCCNC(=N)N)C(=O)N[C@@H](CCC(=O)O)C(=O)N[C@H](C(=O)N[C@@H](C)C(=O)N[C@@H](CC(C)C)C(=O)N[C@@H](CC(C)C)C(=O)N[C@@H](CCCNC(=N)N)C(=O)N[C@@H](CCCNC(=N)N)C(=O)N[C@@H](CC(C)C)C(N)=O)C(C)C)C(C)C)[C@@H](C)O [CDK4 C peptide short] (Ac-LPISTVREVALLRRL-NH2)
helicity [1]: 14%
% helix (alpha helical content) ([2]; CD, 100 μM peptide in phosphate buffer 50 mM, pH 7, 20 °C, from mean residue ellipticity at 222 nm): 14%
conformation in solution (CD) ([2]; phosphate buffer): disordered in solution

Molecule: CC[C@H](C)[C@H](NC(=O)[C@@H]1CCCN1C(=O)[C@H](CC(C)C)NC(=O)[C@H](C)N)C(=O)N[C@@H](CO)C(=O)N[C@H](C(=O)N[C@H](C(=O)N[C@@H](CCCNC(=N)N)C(=O)N[C@@]1(C)CCCC=CCCC[C@@](C)(C(=O)N[C@@H](CCCNC(=N)N)C(=O)N[C@@H](CCCNC(=N)N)C(=O)N[C@@H](CC(C)C)C(N)=O)NC(=O)[C@H](CC(C)C)NC(=O)[C@H](C)NC(=O)[C@H](C(C)C)NC1=O)C(C)C)[C@@H](C)O [P2shortA] (H-ALPISTVR[S5]VAL[S5]RRL-NH2; staple 9-13)
lung damage by HE staining [4]: did not reveal any lung damage
blood distribution half-life [5]: 24 min
blood elimination half-life [5]: 39 h
IC50 [6]: 10.8 ± 0.26 µM
helicity [1]: 74%

Molecule: CC[C@H](C)[C@H](NC(=O)[C@@H]1CCCN1C(=O)[C@H](CC(C)C)NC(=O)[C@H](CS)NC(C)=O)C(=O)N[C@@H](CO)C(=O)N[C@H](C(=O)N[C@H](C(=O)N[C@@H](CCCNC(=N)N)C(=O)N[C@@]1(C)CCCC=CCCC[C@@](C)(C(=O)N[C@@H](CCCNC(=N)N)C(=O)N[C@@H](CCCNC(=N)N)C(=O)N[C@@H](CC(C)C)C(N)=O)NC(=O)[C@H](CC(C)C)NC(=O)[C@H](C)NC(=O)[C@H](C(C)C)NC1=O)C(C)C)[C@@H](C)O [P2short] (Ac-CLPISTVR[S5]VAL[S5]RRL-NH2; staple 9-13)
Kd [3]: 56 ± 19 nM
helicity [1]: 77%

Molecule: CC[C@H](C)[C@H](NC(=O)[C@@H]1CCCN1C(=O)[C@H](CC(C)C)NC(=O)CNC(C)=O)C(=O)N[C@@]1(C)CCCC=CCCC[C@@](C)(C(=O)N[C@H](C(=O)N[C@@H](C)C(=O)N[C@@H](CC(C)C)C(=O)N[C@@]2(C)CCCC=CCCC[C@@](C)(C(=O)N[C@@H](C)C(=O)N[C@@H](Cc3ccccc3)C(=O)N[C@@H](CCC(=O)O)C(N)=O)NC(=O)[C@H](CC(C)C)NC(=O)[C@H](CCCNC(=N)N)NC(=O)[C@H](CCCNC(=N)N)NC2=O)C(C)C)NC(=O)[C@H](CCCNC(=N)N)NC(=O)[C@H](C(C)C)NC(=O)[C@H]([C@@H](C)O)NC1=O [P4] (Ac-GLPI[S5]TVR[S5]VAL[S5]RRL[S5]AFE-NH2; staple 5-9, 13-17)
Kd [3]: 109 ± 29 nM
helicity [1]: 26%

Molecule: GST-cyclin D1 (from UniProt P24385 1-295) (natural protein)
Kd [7]: 43 nM

Molecule: mant-ATP
Kd ([8]; P2short 2-fold excess, read-out: Kd of mant-ATP for CDK4/cyclin D1 in the presence of P2short): 5 ± 2 nM
Kd ([8]; no peptide, read-out: Kd of mant-ATP for CDK4/cyclin D1 complex alone): 27 ± 13 nM

B1: TP2-Rho-labelled P2short stapled peptide (peptide)
chain: Ac-C(TP2‑Rho)GLPISTVR[S5]VAL[S5]RRL-NH2
modifications: staple 10-14; reading uncertain
Kd [9]: 12 nM
Kd [10]: 10 nM
Kd [11]: 47 nM
Kd [12]: 25 nM

More lines, main results first:

Kd [3]: 140 ± 77 nM
Molecule: CC[C@H](C)[C@H](NC(=O)[C@@H]1CCCN1C(=O)[C@H](CC(C)C)NC(=O)CNC(C)=O)C(=O)N[C@@]1(C)CCCC=CCCC[C@@](C)(C(=O)N[C@H](C(=O)N[C@@H](C)C(=O)N[C@@H](CC(C)C)C(=O)N[C@@H](CC(C)C)C(=O)N[C@@H](CCCNC(=N)N)C(=O)N[C@@H](CCCNC(=N)N)C(=O)N[C@@H](CC(C)C)C(=O)N[C@@H](CCC(=O)O)C(=O)N[C@@H](C)C(=O)N[C@@H](Cc2ccccc2)C(=O)N[C@@H](CCC(=O)O)C(N)=O)C(C)C)NC(=O)[C@H](CCCNC(=N)N)NC(=O)[C@H](C(C)C)NC(=O)[C@H]([C@@H](C)O)NC1=O [P1] (Ac-GLPI[S5]TVR[S5]VALLRRLEAFE-NH2; staple 5-9)
helicity [1]: 16%

Kd [3]: 245 ± 84 nM
Molecule: CC[C@H](C)[C@H](NC(=O)[C@@H]1CCCN1C(=O)[C@H](CC(C)C)NC(=O)CNC(C)=O)C(=O)N[C@@H](CO)C(=O)N[C@H](C(=O)N[C@H](C(=O)N[C@@H](CCCNC(=N)N)C(=O)N[C@@]1(C)CCCC=CCCC[C@@](C)(C(=O)N[C@@H](CCCNC(=N)N)C(=O)N[C@@H](CCCNC(=N)N)C(=O)N[C@@H](CC(C)C)C(=O)N[C@@H](CCC(=O)O)C(=O)N[C@@H](C)C(=O)N[C@@H](Cc2ccccc2)C(=O)N[C@@H](CCC(=O)O)C(N)=O)NC(=O)[C@H](CC(C)C)NC(=O)[C@H](C)NC(=O)[C@H](C(C)C)NC1=O)C(C)C)[C@@H](C)O [P2] (Ac-GLPISTVR[S5]VAL[S5]RRLEAFE-NH2; staple 9-13)
helicity [1]: 55%
